Results on 1 molecule are retold here after patent US20220282268A1 (UNIVERSITY COURT OF THE UNIVERSITY OF EDINBURGH, published 2022).

The target of data set [1] is A. thaliana Rubisco small subunit 1A (1AAt), mature (Arabidopsis thaliana, UniProt P10795 56-180). The data set is described as follows: yeast two-hybrid, growth on SD-L-W-H with 3-AT. How it is done:
(§1) Competent yeast cells (Y2H Gold, Clontech) were prepared from a 50 ml culture grown in YPDA medium supplemented with kanamycin (50 μg ml⁻¹). Cells were washed with ddH2O and a lithium acetate/TE solution (100 mM LiAc, 10 mM Tris-HCl [pH 7.5], 1 mM EDTA) before re-suspending in lithium acetate/TE solution. Cells were then co-transformed with binding and activation domain vectors by mixing 50 μl of competent cells with 1 μg of each plasmid vector and a PEG solution (100 mM LiAc, 10 mM Tris-HCl [pH 7.5], 1 mM EDTA, 40% [v/v] PEG 4000). Cells were incubated at 30° C. for 30 min, then subjected to a heat shock of 42° C. for 20 min. The cells were centrifuged, re-suspended in 500 μl YPDA and incubated at 30° C. for ca 90 min, then centrifuged and washed in TE (10 mM Tris-HCl [pH 7.5], 1 mM EDTA). […] The following day 1 ml of culture was harvested, cell density (OD₆₀₀) measured, centrifuged and then diluted in TE to give a final OD₆₀₀ of 0.5 or 0.1.
(§2) Yeast cultures were then plated onto SD-L-W (yeast synthetic minimal media lacking leucine (L) and tryptophan (W)) and SD-L-W-H (yeast synthetic minimal media lacking L, W, and histidine(H)) (Anachem). […] These plates were then incubated for 3 days before assessing for presence or absence of growth, to perform a semi-quantitative yeast two-hybrid assay as in van Nues and Beggs (van Nues and Beggs, Genetics (2000) 157: 1451-1467). […]

Data set [2] addresses T1, A. thaliana CP12-2 (AtCP12) (Arabidopsis thaliana, UniProt Q9LZP9 54-131, limits assumed).
T1 construct: also called AT3G62410; pGADT7_CP12
T1 sequence (looked up): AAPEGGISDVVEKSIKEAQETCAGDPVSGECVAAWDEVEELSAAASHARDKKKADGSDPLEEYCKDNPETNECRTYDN
The data set is described as follows: yeast two-hybrid. How it is done:
as §1, §2

Data set [3] concerns the molecule itself. As to the kind of experiment: yeast two-hybrid, EPYC1 in both the binding domain and the activation domain vector. The method, then: as §1, §2
Data set [4] addresses T2, 1AAtMOD (β-sheets and loop): A. thaliana SSU 1A with β-sheets and βA-βB loop replaced with those of C. … (Arabidopsis thaliana with parts of …).
T2 construct: also called 1AAtMod (β-sheet and loop); pGADT7_1AAtMOD(β-sheets + loop)
T2 chain: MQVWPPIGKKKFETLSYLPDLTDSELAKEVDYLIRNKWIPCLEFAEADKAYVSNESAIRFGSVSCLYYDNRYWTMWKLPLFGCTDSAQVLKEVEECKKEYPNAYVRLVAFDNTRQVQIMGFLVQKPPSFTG
The data set is described as follows: yeast two-hybrid (FIG. 3C). The method, then:
(§3) The following day 1 ml of culture was harvested, cell density (OD₆₀₀) measured, centrifuged and then diluted in TE to give a final OD₆₀₀ of 0.5 or 0.1.
(§4) Yeast cultures were then plated onto SD-L-W (yeast synthetic minimal media lacking leucine (L) and tryptophan (W)) and SD-L-W-H (yeast synthetic minimal media lacking L, W, and histidine(H)) (Anachem). Yeast expressing both binding and activation domain constructs was grown on SD-L-W to confirm presence of both plasmids. To assess interaction strength, yeast was plated onto SD-L-W-H with differing concentrations of the HIS3 inhibitor 3-aminotriazole (3-AT). These plates were then incubated for 3 days before assessing for presence or absence of growth, to perform a semi-quantitative yeast two-hybrid assay as in van Nues and Beggs (van Nues and Beggs, Genetics (2000) 157: 1451-1467). The same yeast transformation was used for each interaction study. Different colonies on the same yeast transformation plate were considered independent biological replicates (as for E. coli). Two biological replicates (top and bottom row for each interaction) were spotted from different liquid culture concentrations (0.5 and 0.1 OD). Each interaction experiment was performed at least twice.
(§5) Interactions were only observed between EPYC1 and chimeric 1AAt with the two α-helices from the C. reinhardtii SSU (FIG. 3C). The S1Cr 1AAt with the S1Cr α-helices alone produced a minimal interaction (i.e., on 0 mM 3-AT), which was strengthened by the incorporation of the β-sheets and the βA-βB loop from S1Cr.

Data set [5] concerns the target T3, 1AAtMOD (β-sheets): A. thaliana SSU 1A with β-sheets replaced with C. reinhardtii β-sheets (Arabidopsis thaliana with parts of …).
T3 construct: also called pGADT7_1AAtMOD(β-sheets)
T3 chain: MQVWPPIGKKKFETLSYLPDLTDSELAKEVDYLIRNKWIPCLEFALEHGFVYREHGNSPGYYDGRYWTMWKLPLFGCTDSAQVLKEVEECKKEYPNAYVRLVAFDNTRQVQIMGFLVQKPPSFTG
As to the kind of experiment: yeast two-hybrid (FIG. 3C). The method, then:
as §3, §4, §5

Data set [6] concerns the target T4, 1AAtMOD (loop): A. thaliana SSU 1A with βA-βB loop replaced with C. reinhardtii βA-βB loop (Arabidopsis thaliana with parts of …).
T4 construct: also called pGADT7_1AAtMOD(loop)
T4 chain: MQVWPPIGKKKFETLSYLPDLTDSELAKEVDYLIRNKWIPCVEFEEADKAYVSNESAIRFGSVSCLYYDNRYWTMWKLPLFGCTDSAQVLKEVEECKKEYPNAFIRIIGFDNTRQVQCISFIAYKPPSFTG
As to the kind of experiment: yeast two-hybrid (FIG. 3C). The method, then:
as §3, §4, §5

Data set [7] addresses T5, 1AAtMOD (α-helices and β-sheets): A. thaliana SSU 1A with α-helices and β-sheets replaced with those of C. … (Arabidopsis thaliana with parts of …).
T5 construct: also called pGADT7_1AAtMOD(α-helices + β-sheets)
T5 chain: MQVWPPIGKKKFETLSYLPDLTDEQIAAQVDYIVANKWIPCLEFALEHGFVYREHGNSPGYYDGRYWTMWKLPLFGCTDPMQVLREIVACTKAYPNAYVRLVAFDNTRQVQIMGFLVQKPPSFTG
The data set is described as follows: yeast two-hybrid (FIG. 3C). How it is done:
as §3, §4, §5

The target in data set [8] is T6, 1AAtMOD (α-helices, β-sheets and loop): A. thaliana SSU 1A with α-helices, β-sheets and βA-βB loop replaced … (Arabidopsis thaliana with parts of …).
T6 construct: also called 1AAtMod (α-helices, β-sheet and loop); pGADT7_1AAtMOD(α-helices + β-sheets + loop)
T6 chain: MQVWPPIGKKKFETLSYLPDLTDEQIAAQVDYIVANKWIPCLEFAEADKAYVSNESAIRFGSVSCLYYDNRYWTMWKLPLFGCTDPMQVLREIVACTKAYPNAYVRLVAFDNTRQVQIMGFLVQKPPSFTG
The data set is described as follows: yeast two-hybrid (FIG. 3C). The method, then: as §3, §4, §5

B1: Essential Pyrenoid Component 1 (EPYC1), full-length, C. reinhardtii (other)
chain: MATISSMRVGAASRVVVSGRVKTVKVAARGSWRESSTATVQASRASSATNRVSPTRSVLPANWRQELESLRNGNGSSSAASSAPAPARSSSASWRDAAPASSAPARSSSASKKAVTPSRSALPSNWKQELESLRSSSPAPASSAPAPARSSSASWRDAAPASSAPARSSSSKKAVTPSRSALPSNWKQELESLRSSSPAPASSAPAPARSSSASWRDAAPASSAPARSSSASKKAVTPSRSALPSNWKQELESLRSNSPAPASSAPAPARSSSASWRDAPASSSSSSADKAGTNPWTGKSKPEIKRTALPADWRKGL
notes: also called Cre10.g436550.t1.2; pGBKT7_EPYC1
Regarding B1, the binding result in data set [1], in data set [2], in data set [3], in data set [4], in data set [5] and in data set [6] was “no binding” each time. For the same molecule, the binding result in data set [7] and in data set [8] was “binds” each time.
